# Assay results: IntAct's records for PubMed 11971877
# B1: Proline-serine-threonine phosphatase-interacting protein 1 (Homo sapiens), O43586 (parent)
# chain: MMPQLQFKDAFWCRDFTAHTGYEVLLQRLLDGRKMCKDMEELLRQRAQAEERYGKELVQIARKAGGQTEINSLRASFDSLKQQMENVGSSHIQLALTLREELRSLEEFRERQKEQRKKYEAVMDRVQKSKLSLYKKAMESKKTYEQKCRDADDAEQAFERISANGHQKQVEKSQNKARQCKDSATEAERVYRQSIAQLEKVRAEWEQEHRTTCEAFQLQEFDRLTILRNALWVHSNQLSMQCVKDDELYEEVRLTLEGCSIDADIDSFIQAKSTGTEPPAPVPYQNYYDREVTPLTSSPGIQPSCGMIKRFSGLLHGSPKTTSLAASAASTETLTPTPERNEGVYTAIAVQEIQGNPASPAQEYRALYDYTAQNPDELDLSAGDILEVILEGEDGWWTVERNGQRGFVPGSYLEKL
# partner: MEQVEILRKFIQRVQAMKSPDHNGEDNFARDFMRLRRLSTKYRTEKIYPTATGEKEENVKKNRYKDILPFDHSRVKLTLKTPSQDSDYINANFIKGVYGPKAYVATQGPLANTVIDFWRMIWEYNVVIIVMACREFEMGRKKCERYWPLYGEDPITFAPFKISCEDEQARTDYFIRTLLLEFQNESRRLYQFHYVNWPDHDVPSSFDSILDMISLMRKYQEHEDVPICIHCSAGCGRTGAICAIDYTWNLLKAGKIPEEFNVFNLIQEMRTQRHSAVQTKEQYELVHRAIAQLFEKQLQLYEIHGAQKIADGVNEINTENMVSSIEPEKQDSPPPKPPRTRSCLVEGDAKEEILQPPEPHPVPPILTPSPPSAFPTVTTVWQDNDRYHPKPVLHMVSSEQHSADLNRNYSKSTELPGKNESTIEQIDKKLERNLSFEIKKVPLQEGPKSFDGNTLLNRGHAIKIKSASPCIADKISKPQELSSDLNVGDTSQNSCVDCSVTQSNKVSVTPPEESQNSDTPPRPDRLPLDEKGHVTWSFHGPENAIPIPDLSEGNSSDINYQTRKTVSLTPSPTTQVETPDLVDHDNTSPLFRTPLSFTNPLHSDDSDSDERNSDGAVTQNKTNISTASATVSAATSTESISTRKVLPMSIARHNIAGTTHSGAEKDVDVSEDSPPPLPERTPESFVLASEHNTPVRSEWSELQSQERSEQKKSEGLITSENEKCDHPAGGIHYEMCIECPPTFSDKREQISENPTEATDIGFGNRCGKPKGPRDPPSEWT
# Variants of: B1
# Settings: with ptn12_human PTPN12, Q05209
row,Variant,effect of a mutation on the interaction
1,E250Q,decreasing interaction
2,A230T,decreasing interaction
